System: MS2 coat protein
Test: apparent KD of MS2 coat protein; designed switch direction (-1 OFF switch, 1 ON switch): -1; higher = weaker reporter binding
Summary of the method: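 Three titration conditions were used: no input, 200 uM small-molecule ligand, and an oligonucleotide input. In each, SNAP-549-labelled MS2 coat protein was raised from 0.7 or 1.5 nM, doubling, to 3 µM over designed RNA switches transcribed on Illumina chips by stalled E. coli RNA polymerase. Curve fits of normalised cluster fluorescence gave values whose per-design median over clusters is the apparent KD.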

[1] = Eterna round: R95, input ligand: microRNA oligo, concentration not stated
[2] = Eterna round: R95, input ligand: FMN 200 uM
[3] = Eterna round: R95, input ligand: none
[4] = input ligand: microRNA oligo, concentration not stated

“CUUCUCGUUGUGAGGAUAUCGUUUUCGUCUCGGAUCGAGAAGGCACAUGAGGAUCACCCAUGUUUGUUGUGGUU [JR_BMOE4_Sub090] (puzzle: Brourd's mod of Exclusion 4)” was tested, and the “apparent KD of MS2 coat protein” value [1] was 87.9 nM.
With “CUUGACUGAGGAUAUUGUGCUGCUGACAUGAGGAUCACCCAUGUAUGUUAACUCGGCCGUCGAGAAGGCAGAAAGG [BotMod 19 - Jieux - Exclusion 5] (Eterna round: R97, puzzle: Exclusion 5)” the “apparent KD of MS2 coat protein” value (input ligand: FMN 200 uM) was 14.2 nM and the “apparent KD of MS2 coat protein” value (input ligand: none) was 40.8 nM.
For “CUUGUAAAUGUGAGGAUAUACUGUUAGUAAAGUUAGUAGAAGGUACAUGAGGAUCACCCAUGUUAAUUACUCUA [JR_BME4_Sub047] (puzzle: Brourd's mod of Exclusion 4)”, the “apparent KD of MS2 coat protein” value [2] was 15.9 nM, the “apparent KD of MS2 coat protein” value [1] was 13.2 nM and the “apparent KD of MS2 coat protein” value [3] was 14.5 nM.
With “CUUGUAUAUCAGGAUAUGAUUUUAUAUAUUGGAUCAGAAGGGAUAACAUGAGGAUCACCCAUGUUGUGGAGUGA [JR_Ex6_Sub038] (Eterna round: R97, puzzle: Exclusion 6)” the “apparent KD of MS2 coat protein” value (input ligand: FMN 200 uM) was 90.5 nM and the “apparent KD of MS2 coat protein” value (input ligand: none) was 204 nM.
With “CUUGUUUAUGUGAGGAUAUACUGUUAGUAAUGUUUGUAGAAGGUACAUGAGGAUCACCCAUGUUUAUUUCCUUU [JR_BME4_Sub045] (puzzle: Brourd's mod of Exclusion 4)” the “apparent KD of MS2 coat protein” value [1] was 13.8 nM.
In the case of “CUUUACAUAGGAUAUAGUUGCUUUUACAUGAGGAUCACCCAUGUCUCUCCUCUCUCUCUUCUAGAAGGAUGUUUCU [JR_E5_Sub010] (puzzle: Exclusion 5)”, the “apparent KD of MS2 coat protein” value [1] is reported as 56 nM.
With “CUUUCGUGAGGAUAUGUGGCUAAAAUCGUGAGAUCGAGGCUACAGAAGGCACAUGAGGAUCACCCAUGUUCCUC [salish99_ex4_r4_212] (Eterna round: R97, puzzle: Exclusion 4)” the “apparent KD of MS2 coat protein” value (input ligand: FMN 200 uM) was 379 nM and the “apparent KD of MS2 coat protein” value (input ligand: none) was 38.3 nM.
For “CUUUUGGCAGGAUAUGCUUUUUUUGACAUGAGGAUCACCCAUGUGAUGCAUUUUGGGUUUGCAGAAGGGCCUGAGU [JR_E5_Sub036] (puzzle: Exclusion 5)”, the “apparent KD of MS2 coat protein” value [1] was 56.9 nM.
“CUUUUGUCAGGAUAUGAGUAGUAGAACAAUAGUACUACUACUCAGAAGGGACAUGAGGAUCACCCAUGUUCCUC [Fiskers Ex 4 Super stable 44 mod 19] (puzzle: Exclusion 4)” was tested, and the “apparent KD of MS2 coat protein” value [1] was 16.2 nM.
With “CUUUUGUGAGGAUAUCAGGUGUGCUAGCGUACUGGUACAUCUGAGAAGGCACAUGAGGAUCACCCAUGUUUCUU [JL-ex4-3.19 Brourd mod] (puzzle: Exclusion 4)” the “apparent KD of MS2 coat protein” value [1] was 27.1 nM.
In the case of “CUUUUGUGAGGAUAUCAGUAGUAAAAAAAUAAAAUUACUACUGAGAAGGCACAUGAGGAUCACCCAUGUUCCUC [EX4 344: Super Stable 44] (Eterna round: R96, puzzle: Exclusion 4)”, the “apparent KD of MS2 coat protein” value (input ligand: FMN 200 uM) is reported as 343 nM, the “apparent KD of MS2 coat protein” value [4] is reported as 36.3 nM and the “apparent KD of MS2 coat protein” value (input ligand: none) is reported as 42.4 nM.
For “CUUUUGUGAGGAUAUCAGUAGUAAAAAAAUAAAAUUACUACUGAGAAGGCACAUGAGGAUCACCCAUGUUCCUC [salish99_ex4_r3_009] (puzzle: Exclusion 4)”, the “apparent KD of MS2 coat protein” value [2] was 257 nM, the “apparent KD of MS2 coat protein” value [1] was 39.7 nM and the “apparent KD of MS2 coat protein” value [3] was 38.4 nM.
“CUUUUGUGAGGAUAUCAGUAGUAAAGAAAUAAAAUUACUACUGAGAAGGCACAUGAGGAUCACCCAUGUUCCUC [Mat - Exclusion 4 - Mod of Salish - D62] (puzzle: Exclusion 4)” was tested, and the “apparent KD of MS2 coat protein” value [1] was 36.2 nM.
In the case of “CUUUUGUGAGGAUAUCAGUAGUAAAUAAAUAAUAUUACUACUGAGAAGGCACAUGAGGAUCACCCAUGUUCCUC [salish99_ex3_r3_083] (Eterna round: R96, puzzle: Exclusion 4)”, the “apparent KD of MS2 coat protein” value (input ligand: FMN 200 uM) is reported as 385 nM, the “apparent KD of MS2 coat protein” value [4] is reported as 39 nM and the “apparent KD of MS2 coat protein” value (input ligand: none) is reported as 45.3 nM.
In the case of “CUUUUGUGAGGAUAUCAGUAGUAAAUAAAUAAUAUUACUACUGAGAAGGCACAUGAGGAUCACCCAUGUUCCUC [salish99_ex3_r3_083] (puzzle: Exclusion 4)”, the “apparent KD of MS2 coat protein” value [1] is reported as 42.3 nM.
For “CUUUUGUGAGGAUAUCAGUAGUAAAUAAAUAUAAUUACUACUGAGAAGGCACAUGAGGAUCACCCAUGUUCCUC [salish99_ex3_r3_082] (puzzle: Exclusion 4)”, the “apparent KD of MS2 coat protein” value [1] was 38.2 nM.
For “CUUUUGUGAGGAUAUCAGUAGUAAUACAAUAGUAUUACUACUGAGAAGGCACAUGAGGAUCACCCAUGUUCCUU [Ex4 344 Omei mod 1] (puzzle: Exclusion 4)”, the “apparent KD of MS2 coat protein” value [1] was 14.5 nM.
With “CUUUUGUGAGGAUAUCAGUAGUAUAAAAUAAAAUAUACUACUGAGAAGGCACAUGAGGAUCACCCAUGUUCCUC [Mat - Exclusion 4 - Mod of Salish - D71] (puzzle: Exclusion 4)” the “apparent KD of MS2 coat protein” value [1] was 38.5 nM.
In the case of “CUUUUGUGAGGAUAUCAGUAUUAAAAAAAUAAAAUUACUACUGAGAAGGCACAUGAGGAUCACCCAUGUUCCUC [salish99_ex4_r3_032] (puzzle: Exclusion 4)”, the “apparent KD of MS2 coat protein” value [1] is reported as 34.4 nM.
For “CUUUUGUGAGGAUAUCAGUUGUAAAUAAAUAAAAUUACUACUGAGAAGGCACAUGAGGAUCACCCAUGUUCCUC [salish99_ex3_r3_073] (puzzle: Exclusion 4)”, the “apparent KD of MS2 coat protein” value [1] was 37.8 nM.
With “CUUUUGUGAGGAUAUCGGUAGUAAUACAAUAGUAUUACUACUGAGAAGGCACAUGAGGAUCACCCAUGUUCCUC [Ex4 344 Omei mod 9] (puzzle: Exclusion 4)” the “apparent KD of MS2 coat protein” value [1] was 43 nM.
For “CUUUUGUGAGGAUAUGGUAACGAUGACAUGAGGAUCACCCAUGUAACAUGGGACUUGAGACUAGAAGGCACUAACG [JR_Ex5_Sub025] (Eterna round: R97, puzzle: Exclusion 5)”, the “apparent KD of MS2 coat protein” value (input ligand: FMN 200 uM) was 94.7 nM and the “apparent KD of MS2 coat protein” value (input ligand: none) was 134 nM.
For “CUUUUGUGAGGAUAUUAGUAGUAAAUAAAUAAAAUUAUUACUGAGAAGGUACAUGAGGAUCACCCAUGUUCCUU [Salish 062 v21] (Eterna round: R97, puzzle: Exclusion 4)”, the “apparent KD of MS2 coat protein” value (input ligand: FMN 200 uM) was 12.8 nM and the “apparent KD of MS2 coat protein” value (input ligand: none) was 19.9 nM.
In the case of “CUUUUGUGAGGAUAUUAGUAGUAAAUAAAUAAAUUUACUACUGAGAAGGCACAUGAGGAUCACCCAUGUUCCUC [salish99_ex4_r3_060] (Eterna round: R96, puzzle: Exclusion 4)”, the “apparent KD of MS2 coat protein” value (input ligand: FMN 200 uM) is reported as 703 nM, the “apparent KD of MS2 coat protein” value [4] is reported as 38.5 nM and the “apparent KD of MS2 coat protein” value (input ligand: none) is reported as 40.9 nM.
For “CUUUUGUGAGGAUAUUAGUAGUAAAUAAAUAAAUUUACUACUGAGAAGGCACAUGAGGAUCACCCAUGUUCCUC [salish99_ex4_r3_060] (puzzle: Exclusion 4)”, the “apparent KD of MS2 coat protein” value [1] was 33.7 nM.
In the case of “CUUUUGUGAGGAUAUUAGUAGUUUAUAAUUAAAAUUAUUACUGAGAAGGCACAUGAGGAUCACCCAUGUAAAAC [JR_Ex4_Sub029] (Eterna round: R97, puzzle: Exclusion 4)”, the “apparent KD of MS2 coat protein” value (input ligand: FMN 200 uM) is reported as 122 nM and the “apparent KD of MS2 coat protein” value (input ligand: none) is reported as 104 nM.
“CUUUUUUGAGGAUAUUAGUAGUAAAUAAAUAAAAUUACUACUGAGAAGGCACAUGAGGAUCACCCAUGUUCCUC [salish99_ex4_r3_046] (puzzle: Exclusion 4)” was tested, and the “apparent KD of MS2 coat protein” value [1] was 17.6 nM.
For “GAAAACGCAGAGGAUAUUCCAGAUCUAAGCUGCGAAGAAGGCUGCACAUGAGGAUCACCCAUGUGGUCUUUAAA [Maoned] (Eterna round: R96, puzzle: Exclusion 6)”, the “apparent KD of MS2 coat protein” value [4] was 13.7 nM.
In the case of “GAAAACGCAGAGGAUAUUCCAGAUCUAAGCUGCGAAGAAGGCUGCACAUGAGGAUCACCCAUGUGGUCUUUAAA [Maoned] (puzzle: Exclusion 6)”, the “apparent KD of MS2 coat protein” value [2] is reported as 121 nM, the “apparent KD of MS2 coat protein” value [1] is reported as 12.3 nM and the “apparent KD of MS2 coat protein” value [3] is reported as 14.9 nM.
“GAAAACGCAGAGGAUAUUUCAGAUCAAAGCUGCAAAGAAGGCUGCACAUGAGGAUCACCCAUGUGGUCUUCAAA [jl-ex6-4.02 ViennaUCT mod] (Eterna round: R97, puzzle: Exclusion 6)” was tested, and the “apparent KD of MS2 coat protein” value (input ligand: FMN 200 uM) was 386 nM and the “apparent KD of MS2 coat protein” value (input ligand: none) was 20.7 nM.
In the case of “GAAAACGUAGGAUAUUAAUACUUAUACAUGAGGAUCACCCAUGUUUGGUGGGUUUAAGAAUGAGAAGGGCGAUGAA [EX5 #8] (Eterna round: R97, puzzle: Exclusion 5)”, the “apparent KD of MS2 coat protein” value (input ligand: FMN 200 uM) is reported as 446 nM and the “apparent KD of MS2 coat protein” value (input ligand: none) is reported as 717 nM.
“GAAAAGGUAGAGGAUAUUUCAGGUCAAAGCUGCAAAGAAGGCUGCACAUGAGGAUCACCCAUGUGGUCUUAAAA [Mod of Quesina 7 - Jieux - Exclusion 6] (Eterna round: R97, puzzle: Exclusion 6)” was tested, and the “apparent KD of MS2 coat protein” value (input ligand: FMN 200 uM) was 90.4 nM and the “apparent KD of MS2 coat protein” value (input ligand: none) was 25.7 nM.
In the case of “GAAAAGGUAGGAUAUACGAAAAAAAAGGGUAGAAAAAAAAAACAUGAGGAUCACCCAUGUAGAAGGACCAAAAG [salish99_ex2_r3_059] (Eterna round: R96, puzzle: Exclusion 2)”, the “apparent KD of MS2 coat protein” value [4] is reported as 34.7 nM.
For “GAAAAGGUAGGAUAUACGAAAAAAAAGGGUAGAAAAAAAAAACAUGAGGAUCACCCAUGUAGAAGGACCAAAAG [salish99_ex2_r3_059] (puzzle: Exclusion 2)”, the “apparent KD of MS2 coat protein” value [2] was 134 nM, the “apparent KD of MS2 coat protein” value [1] was 26.6 nM and the “apparent KD of MS2 coat protein” value [3] was 13.7 nM.
“GAAAAGGUAGGAUAUACGAAAAAAAAGGGUAGAAAAGAAACACAUGAGGAUCACCCAUGUAGAAGGACCAAAAG [salish99_ex2_r3_016] (puzzle: Exclusion 2)” was tested, and the “apparent KD of MS2 coat protein” value [2] was 78 nM, the “apparent KD of MS2 coat protein” value [1] was 27.8 nM and the “apparent KD of MS2 coat protein” value [3] was 21.5 nM.
With “GAAAAGGUAGGAUAUACGAAAAAGAAGGGUAGAAAAAAAACACAUGAGGAUCACCCAUGUAGAAGGACCAAAAG [salish99_ex2_r3_026] (puzzle: Exclusion 2)” the “apparent KD of MS2 coat protein” value [2] was 56 nM, the “apparent KD of MS2 coat protein” value [1] was 24.1 nM and the “apparent KD of MS2 coat protein” value [3] was 21 nM.
For “GAAAAGGUAGGAUAUACGAAAACAAAGGGUAGAAACAAAACACAUGAGGAUCACCCAUGUAGAAGGACCAAAAG [salish99_ex2_r3_097] (Eterna round: R96, puzzle: Exclusion 2)”, the “apparent KD of MS2 coat protein” value [4] was 30.8 nM.
“GAAAAGGUAGGAUAUACGAAAACAAAGGGUAGAAACAAAACACAUGAGGAUCACCCAUGUAGAAGGACCAAAAG [salish99_ex2_r3_097] (puzzle: Exclusion 2)” was tested, and the “apparent KD of MS2 coat protein” value [2] was 164 nM, the “apparent KD of MS2 coat protein” value [1] was 25.6 nM and the “apparent KD of MS2 coat protein” value [3] was 25.4 nM.

— the supplement of paper PMC9170038
